The results in this text go back to publication doi:10.1101/2021.01.06.425396.

For this experiment, the target named is T1, tetherin (Bst2), endogenous (human (endogenous in HeLa)), Q10589.
T1 chain: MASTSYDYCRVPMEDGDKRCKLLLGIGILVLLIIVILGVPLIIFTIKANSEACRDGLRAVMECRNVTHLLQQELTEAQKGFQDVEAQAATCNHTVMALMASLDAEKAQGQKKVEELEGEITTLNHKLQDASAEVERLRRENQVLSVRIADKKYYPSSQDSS
The experiment in a line: non-reducing SDS-PAGE and Western blot. Conditions: remark: other sources report otherwise. Background: In western blotting, separated proteins are transferred to a membrane and probed.

B1: tetherin (Bst2), endogenous, Q10589 1-161 (natural protein)
chain: MASTSYDYCRVPMEDGDKRCKLLLGIGILVLLIIVILGVPLIIFTIKANSEACRDGLRAVMECRNVTHLLQQELTEAQKGFQDVEAQAATCNHTVMALMASLDAEKAQGQKKVEELEGEITTLNHKLQDASAEVERLRRENQVLSVRIADKKYYPSSQDSS
What is called stoichiometry N is the number of molecules, sites or subunits per partner or assembly. On to B1, for which the stoichiometry N amounted to 2.
